We go through four molecules from publication PMC2988884 (Nature structural & molecular biology, 2010).

B1: Trs33 (natural protein, S. cerevisiae (endogenous in yeast), UniProt Q99394 1-268, looked up)
chain: MSSTHSNNVGHPQSSPQGPLTEQQRAQQQYQIFENSLPKVSQSVYQMLLNEMVPLAMGIERQISGDVISSDSNVTSENGNINNMIKRLKIEEHHTVDIIRSHNLIHELYKADEEEKEKVLARLRNIGFQIGLKLSELLIFSNNPNLKFKEMDLLLIMKFICRDVWKQIFGKQIDNLKTNHRGTFYLLDYDYRPIQSFSLEEDAKNEELKMIEPFLEIPVGIIRGVLSSLGYSSEEVICLASFIDRPTDRPKTAFPKGVSFHVQVTMPQ
B2: Trs20 (natural protein, S. cerevisiae (endogenous in yeast), UniProt P38334 1-175, looked up)
chain: MPQYFAIIGKKDNPVYEIEFTNAENPQGFPQDLKELNPFILHASLDIVEDLQWQINPTSQLNGNGGNGSNGGGGFLRSRAVNNTDNCYLGKVDHFYGLAITAYISYSGMKFVMIHGNSANSSVVIDDNNMRSFYQEVHELYVKTLMNPFYKITDPIRSPAFDSRVRTLARKHLSK
B3: Trs130 (natural protein, S. cerevisiae (endogenous in yeast), UniProt Q03660 1-1102, looked up)
chain: MDKEIYCGSVPVSYFDPFDLFESLRPEFQQILPLDNIHWKAFDGTVRTVNRLPIELIPEGRGEADKSNDEQPFIRFLIVNCISIDQYRAKVRPLVRQWLPNLESVSSSTGEKMIYKPIILLYANSEVVDSNLFKSVSLMEKFGKDFPHVQTLEVRSVYRSPKERQEFWNQFSQKIKASVLSIFQKRLTHLQHSLANLQKGNNFEEQLLTREKLYELYVVFNILEDASLELQKIKKEILRRNMNMPDGKLQVPFESSSKSDESLGSIIIEGTLDKFQLHKYFFIRRLRLLKLEDQTLTAFVGAFQLIKNFIESISIEYRKSVRLLEFKHYFITSMLSYFEFENVSNPLLCEIKAELLMLKRDNWVQGVMATSGYRLMDKNYPNSDVKYKFDLLKETFVDETVFQENFLTLTKEILSLFNKCEGKRQRIVDILSIEIGLLYYQGKKYEEAVSLFLSCYEYYTQTNWNSIGLKILQVFIDSLSHCPKLDVLQIDGESVSASAVLTNAFLNILKLCKDNDSKEIWWKKFMDLQMKNNIHLMYPLDGLFEVTLNSKVHLARANVSAIEVNLKSYGFPEDISTKTMRLSLKNMGGDVIVFGASDFLLKKGENKLILECRDIMYGEFSLLSFEIIVEGITFVKEFPENQDEFIVVPEIYCKESTKVLVKQAHNLNLGEYALELKSVQSDALESLQVEVEVQKNIGNMKNLPVSFSMDEIQARKRYNTPFENVRLEYYLLDQITAFDLIIKTSFTKKNDQGTFGETKKVRIQCYLQLSVSVEDIFKKDIFFFKFLLNSSVREEPVILYSSELSAPDTRNDYNIRGDYIATTPALITFDGNESFINCYEITANNNFDSKDIFNLKVRYNTLKEQLDCFITDAVLIEGDVEWFILFEKWKTFWELEILKKLKYDYDAFKENRIIRLLKTSIDLNKTKSKIRNLCIEKAVLDKILICLNKVSRGIAVCNTDMDEYVRNLVPKQLTVPVQLPGFEQFFHVQFEQMETSHDALHDTIATIGNSLSYTVIVENLSGQWGQDVIDDGGYIFEILSSNEWLIHGQKRCAIKEKRKEFEVHLIPLKKGYLNFPRVEITNINGKSCRVDHSNAFESILIF
B4: Bet3 (natural protein, S. cerevisiae (endogenous in yeast), UniProt P36149 1-193, looked up)
chain: MVSTTQSRSLKAMGEEIWKNKTEKINTELFTLTYGSIVAQLCQDYERDFNKVNDHLYSMGYNIGCRLIEDFLARTALPRCENLVKTSEVLSKCAFKIFLNITPNITNWSHNKDTFSLILDENPLADFVELPMDAMKSLWYSNILCGVLKGSLEMVQLDCDVWFVSDILRGDSQTEIKVKLNRILKDEIPIGED

The target of test [1] is T1, Trs120 with a C-terminal TAP tag (Trs120-TAP) (S. cerevisiae (endogenous in yeast), UniProt Q04183 1-1289).
T1 sequence (looked up): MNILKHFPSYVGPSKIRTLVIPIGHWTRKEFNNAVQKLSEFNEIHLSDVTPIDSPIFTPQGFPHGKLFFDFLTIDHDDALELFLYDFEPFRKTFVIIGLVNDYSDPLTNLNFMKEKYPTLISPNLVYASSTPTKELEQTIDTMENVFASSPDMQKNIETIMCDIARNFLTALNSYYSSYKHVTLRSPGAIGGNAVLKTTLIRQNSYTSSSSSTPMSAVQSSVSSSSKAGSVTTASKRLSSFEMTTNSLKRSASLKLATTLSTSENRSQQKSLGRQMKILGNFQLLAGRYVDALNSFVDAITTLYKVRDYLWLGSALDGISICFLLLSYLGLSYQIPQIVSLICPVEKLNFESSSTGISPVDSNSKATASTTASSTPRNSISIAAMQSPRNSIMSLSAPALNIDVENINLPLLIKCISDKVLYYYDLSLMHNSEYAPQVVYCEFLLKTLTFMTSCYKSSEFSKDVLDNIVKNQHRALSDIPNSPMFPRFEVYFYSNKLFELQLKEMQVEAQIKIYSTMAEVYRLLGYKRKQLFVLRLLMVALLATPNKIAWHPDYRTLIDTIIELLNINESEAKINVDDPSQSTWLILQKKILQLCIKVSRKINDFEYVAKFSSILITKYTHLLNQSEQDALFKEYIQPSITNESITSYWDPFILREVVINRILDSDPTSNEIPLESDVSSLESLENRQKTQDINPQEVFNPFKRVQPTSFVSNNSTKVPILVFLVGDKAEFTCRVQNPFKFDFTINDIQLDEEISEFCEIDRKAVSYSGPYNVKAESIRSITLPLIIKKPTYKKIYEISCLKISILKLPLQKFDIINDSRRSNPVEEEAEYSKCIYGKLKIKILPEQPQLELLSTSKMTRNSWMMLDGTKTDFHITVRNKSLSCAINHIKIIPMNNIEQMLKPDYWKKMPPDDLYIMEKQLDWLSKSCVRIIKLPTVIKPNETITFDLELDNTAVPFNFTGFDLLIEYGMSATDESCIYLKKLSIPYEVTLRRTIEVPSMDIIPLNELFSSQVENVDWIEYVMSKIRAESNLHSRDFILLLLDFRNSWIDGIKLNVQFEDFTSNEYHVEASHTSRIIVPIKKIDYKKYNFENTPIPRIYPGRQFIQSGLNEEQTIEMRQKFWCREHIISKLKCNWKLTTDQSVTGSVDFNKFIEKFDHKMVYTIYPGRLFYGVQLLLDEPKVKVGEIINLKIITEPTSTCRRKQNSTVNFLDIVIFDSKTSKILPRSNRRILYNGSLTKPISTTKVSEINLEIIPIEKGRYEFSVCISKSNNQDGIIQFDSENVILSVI
The experiment in a line: single-particle EM.

The test “Trs130” addresses B3. Nature of the test: single-particle EM.

Regarding B1, in test [1], the binding result is given as “binds”.

Consider B2, for which, in the test with Trs130, the binding result is listed as “binds”. Regarding B3, the binding result in test [1] is recorded as “binds”.

B4: the binding result in test [1] is “binds”.
